Reference: publication PMC9482650, “Quantitative fragmentomics allow affinity mapping of interactomes” (Nature Communications, 2022)

Assays:
Test in all cases: holdup assay
Set-up in all cases: key: below the threshold = too weak to quantify, mostly under pKd 3.1 to 4
[1] = target: T1, APBA2_2, Q99767
T1 sequence (Q99767 654-744, limits assumed, looked up): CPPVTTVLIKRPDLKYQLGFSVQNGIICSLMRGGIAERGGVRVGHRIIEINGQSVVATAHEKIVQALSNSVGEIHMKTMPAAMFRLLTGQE

[2] = target: T2, ARHGEF11, O15085
T2 sequence (O15085 42-136, limits assumed, looked up): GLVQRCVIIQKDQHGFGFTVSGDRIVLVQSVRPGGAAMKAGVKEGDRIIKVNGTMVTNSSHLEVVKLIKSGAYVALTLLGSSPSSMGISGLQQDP

[3] = target: T3, DFNB31_2, Q9P202
T3 sequence (Q9P202 274-371, limits assumed, looked up): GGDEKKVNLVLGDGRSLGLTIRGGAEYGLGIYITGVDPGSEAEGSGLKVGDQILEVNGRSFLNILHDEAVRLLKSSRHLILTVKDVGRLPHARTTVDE

[4] = target: T4, DFNB31_3, Q9P202
T4 sequence (Q9P202 811-907, limits assumed, looked up): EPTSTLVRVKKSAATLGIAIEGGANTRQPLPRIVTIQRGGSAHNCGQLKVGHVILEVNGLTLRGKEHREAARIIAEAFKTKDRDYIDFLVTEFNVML

[5] = target: DLG1_3, Q12959
Sequence of DLG1_3, Q12959 (Q12959 457-571): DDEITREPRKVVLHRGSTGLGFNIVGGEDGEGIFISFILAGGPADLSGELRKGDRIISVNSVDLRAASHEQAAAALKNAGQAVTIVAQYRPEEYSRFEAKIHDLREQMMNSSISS

[6] = target: GOPC, Q9HD26
[7] = target: GORASP2, Q9H8Y8
[8] = target: GRID2IP_2, A4D2P6
Sequence of GRID2IP_2, A4D2P6 (A4D2P6 272-370): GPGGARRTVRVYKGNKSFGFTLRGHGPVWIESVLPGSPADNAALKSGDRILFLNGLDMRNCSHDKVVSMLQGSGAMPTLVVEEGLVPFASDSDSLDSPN

[9] = target: GRIP2_4, Q9C0E4
Sequence of GRIP2_4, Q9C0E4 (Q9C0E4 446-548): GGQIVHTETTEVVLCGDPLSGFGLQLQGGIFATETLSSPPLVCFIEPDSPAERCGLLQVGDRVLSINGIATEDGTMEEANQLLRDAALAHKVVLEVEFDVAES

[10] = target: GRIP2_5, Q9C0E4
Sequence of GRIP2_5, Q9C0E4 (Q9C0E4 544-642): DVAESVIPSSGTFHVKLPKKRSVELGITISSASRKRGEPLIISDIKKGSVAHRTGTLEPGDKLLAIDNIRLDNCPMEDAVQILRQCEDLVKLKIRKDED

[11] = target: HTRA1, Q92743
Sequence of HTRA1, Q92743 (Q92743 360-477): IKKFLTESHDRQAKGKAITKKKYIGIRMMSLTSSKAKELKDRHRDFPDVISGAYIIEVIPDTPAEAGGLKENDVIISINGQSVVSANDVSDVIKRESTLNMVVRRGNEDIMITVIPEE

[12] = target: HTRA2, O43464
Sequence of HTRA2, O43464 (O43464 355-458): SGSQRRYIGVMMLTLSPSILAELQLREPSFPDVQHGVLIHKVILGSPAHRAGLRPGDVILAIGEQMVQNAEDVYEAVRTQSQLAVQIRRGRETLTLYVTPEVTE

[13] = target: T5, HTRA3, P83110
T5 sequence (P83110 354-453, limits assumed, looked up): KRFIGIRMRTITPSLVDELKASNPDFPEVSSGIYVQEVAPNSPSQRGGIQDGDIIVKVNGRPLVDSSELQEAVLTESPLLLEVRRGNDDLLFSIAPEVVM

[14] = target: IL16_3, Q14005
Sequence of IL16_3, Q14005 (Q14005 1107-1207): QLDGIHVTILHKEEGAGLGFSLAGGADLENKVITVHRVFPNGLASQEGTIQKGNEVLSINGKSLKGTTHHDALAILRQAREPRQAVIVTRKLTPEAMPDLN

[15] = target: Inadl_1, Q8NI35
Sequence of Inadl_1, Q8NI35 (Q8NI35 113-229): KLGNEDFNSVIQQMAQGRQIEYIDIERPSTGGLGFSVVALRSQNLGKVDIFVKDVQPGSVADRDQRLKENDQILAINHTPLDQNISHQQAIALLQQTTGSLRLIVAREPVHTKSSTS

[16] = target: Inadl_4, Q8NI35
Sequence of Inadl_4, Q8NI35 (Q8NI35 547-651): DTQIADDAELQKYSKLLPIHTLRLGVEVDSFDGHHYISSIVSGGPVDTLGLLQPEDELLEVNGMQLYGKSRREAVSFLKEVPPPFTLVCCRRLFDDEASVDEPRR

[17] = target: Inadl_5, Q8NI35
Sequence of Inadl_5, Q8NI35 (Q8NI35 673-780): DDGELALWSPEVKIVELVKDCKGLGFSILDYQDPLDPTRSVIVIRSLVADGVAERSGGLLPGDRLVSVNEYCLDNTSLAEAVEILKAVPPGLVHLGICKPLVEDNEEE

[18] = target: Inadl_9, Q8NI35
Sequence of Inadl_9, Q8NI35 (Q8NI35 1530-1615): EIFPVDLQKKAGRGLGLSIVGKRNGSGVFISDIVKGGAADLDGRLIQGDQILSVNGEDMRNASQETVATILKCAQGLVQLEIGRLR

[19] = target: T6, LNX2_2, Q8N448
T6 sequence (Q8N448 334-432, limits assumed, looked up): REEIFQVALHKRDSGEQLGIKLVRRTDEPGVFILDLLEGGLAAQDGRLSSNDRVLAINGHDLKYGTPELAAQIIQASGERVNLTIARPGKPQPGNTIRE

[20] = target: T7, LNX2_3, Q8N448
T7 sequence (Q8N448 463-564, limits assumed, looked up): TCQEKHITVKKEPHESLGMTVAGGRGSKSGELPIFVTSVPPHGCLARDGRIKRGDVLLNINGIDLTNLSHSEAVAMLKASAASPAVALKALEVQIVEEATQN

[21] = target: MAGI1_1, Q96QZ7
Sequence of MAGI1_1, Q96QZ7 (Q96QZ7 1-106): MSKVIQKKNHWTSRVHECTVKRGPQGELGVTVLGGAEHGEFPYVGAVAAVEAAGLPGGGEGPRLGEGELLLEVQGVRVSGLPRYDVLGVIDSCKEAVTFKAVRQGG

[22] = target: MAGI3_2, Q5TCQ9
Sequence of MAGI3_2, Q5TCQ9 (Q5TCQ9 398-503): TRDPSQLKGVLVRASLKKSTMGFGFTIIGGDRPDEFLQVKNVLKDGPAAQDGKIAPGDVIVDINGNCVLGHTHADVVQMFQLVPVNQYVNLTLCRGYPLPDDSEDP

[23] = target: MAST1, Q9Y2H9
Sequence of MAST1, Q9Y2H9 (Q9Y2H9 962-1065): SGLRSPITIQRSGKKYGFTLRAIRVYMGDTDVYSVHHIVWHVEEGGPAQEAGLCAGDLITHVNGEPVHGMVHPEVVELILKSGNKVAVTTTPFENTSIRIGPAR

[24] = target: T8, MPDZ_10, O75970
T8 sequence (O75970 1624-1722, limits assumed, looked up): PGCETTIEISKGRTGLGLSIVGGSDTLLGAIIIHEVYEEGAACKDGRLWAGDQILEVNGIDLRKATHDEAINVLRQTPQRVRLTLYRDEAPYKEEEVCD

[25] = target: T9, NHERF3_3, Q5T2W1
T9 sequence (Q5T2W1 238-333, limits assumed, looked up): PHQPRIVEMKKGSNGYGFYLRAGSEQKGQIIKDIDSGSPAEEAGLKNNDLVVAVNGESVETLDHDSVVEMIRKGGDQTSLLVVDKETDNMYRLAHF

[26] = target: PICK1, Q9NRD5
Sequence of PICK1, Q9NRD5 (Q9NRD5 17-115): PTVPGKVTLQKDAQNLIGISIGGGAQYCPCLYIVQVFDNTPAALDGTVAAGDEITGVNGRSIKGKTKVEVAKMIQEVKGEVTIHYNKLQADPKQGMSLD

[27] = target: SNX27, Q96L92
[28] = target: TJP1_2, Q07157
Sequence of TJP1_2, Q07157 (Q07157 181-274): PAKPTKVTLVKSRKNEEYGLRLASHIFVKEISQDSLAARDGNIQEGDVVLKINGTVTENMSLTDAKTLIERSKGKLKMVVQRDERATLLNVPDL

[29] = target: TJP1_3, Q07157
Sequence of TJP1_3, Q07157 (Q07157 416-512): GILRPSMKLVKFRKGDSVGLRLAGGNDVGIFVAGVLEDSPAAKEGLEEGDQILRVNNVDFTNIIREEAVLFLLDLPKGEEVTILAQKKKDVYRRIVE

[30] = plain residues with an end cap or a label only (N-terminal biotin on a linker: ahx)
[31] = plain residues with an end cap or a label only (N-terminal biotin on a linker: ttds)
[32] = plain residues with an end cap or a label only (N-terminal biotin on a linker: ado-ado)

B1: TJP3, O95049 (peptide)
chain: GYDWGPATDL
- pKd [1, 30]: below the threshold
- pKd [2, 30]: 4.6
- pKd [3, 30]: below the threshold
- pKd [4, 30]: below the threshold
- pKd [5, 30]: below the threshold
- pKd [6, 30]: 3.93
- pKd [7, 30]: below the threshold
- pKd [8, 30]: 4.47
- pKd [9, 30]: below the threshold
- pKd [10, 30]: below the threshold
- pKd [11, 30]: 4.12
- pKd [12, 30]: below the threshold
- pKd [13, 30]: below the threshold
- pKd [14, 30]: below the threshold
- pKd [15, 30]: below the threshold
- pKd [16, 30]: below the threshold
- pKd [17, 30]: below the threshold
- pKd [18, 30]: 3.6
- pKd [19, 30]: below the threshold
- pKd [20, 30]: below the threshold
- pKd [21, 30]: below the threshold
- pKd [22, 30]: below the threshold
- pKd [23, 30]: 4.78
- pKd [24, 30]: below the threshold
- pKd [25, 30]: below the threshold
- pKd [26, 30]: below the threshold
- pKd [27, 30]: 3.64
- pKd [28, 30]: below the threshold
- pKd [29, 30]: below the threshold

B2: SLC16A3, O15427 (peptide)
chain: EVVHTPETSV
- pKd [1, 31]: below the threshold
- pKd [2, 31]: 3.76
- pKd [3, 31]: below the threshold
- pKd [4, 31]: below the threshold
- pKd [5, 31]: 4.1
- pKd [6, 31]: below the threshold
- pKd [7, 31]: below the threshold
- pKd [8, 31]: below the threshold
- pKd [9, 31]: below the threshold
- pKd [10, 31]: below the threshold
- pKd [11, 31]: below the threshold
- pKd [12, 31]: below the threshold
- pKd [13, 31]: below the threshold
- pKd [14, 31]: below the threshold
- pKd [15, 31]: below the threshold
- pKd [16, 31]: below the threshold
- pKd [17, 31]: below the threshold
- pKd [18, 31]: below the threshold
- pKd [19, 31]: below the threshold
- pKd [20, 31]: below the threshold
- pKd [21, 31]: below the threshold
- pKd [22, 31]: 4.33
- pKd [23, 31]: 4.11
- pKd [24, 31]: below the threshold
- pKd [25, 31]: below the threshold
- pKd [26, 31]: below the threshold
- pKd [27, 31]: 5.15
- pKd [28, 31]: 3.83
- pKd [29, 31]: below the threshold

B3: PDZRN4, Q6ZMN7 (peptide)
chain: HNAFLSVTTV
- pKd [1, 30]: below the threshold
- pKd [2, 30]: 3.59
- pKd [3, 30]: below the threshold
- pKd [4, 30]: below the threshold
- pKd [5, 30]: below the threshold
- pKd [6, 30]: 3.6
- pKd [7, 30]: 3.55
- pKd [8, 30]: below the threshold
- pKd [9, 30]: below the threshold
- pKd [10, 30]: below the threshold
- pKd [11, 30]: 3.61
- pKd [12, 30]: below the threshold
- pKd [13, 30]: below the threshold
- pKd [14, 30]: below the threshold
- pKd [15, 30]: below the threshold
- pKd [16, 30]: below the threshold
- pKd [17, 30]: below the threshold
- pKd [18, 30]: below the threshold
- pKd [19, 30]: 3.87
- pKd [20, 30]: below the threshold
- pKd [21, 30]: below the threshold
- pKd [22, 30]: 3.58
- pKd [23, 30]: 3.65
- pKd [24, 30]: 3.75
- pKd [25, 30]: below the threshold
- pKd [26, 30]: below the threshold
- pKd [27, 30]: 3.65
- pKd [28, 30]: below the threshold
- pKd [29, 30]: below the threshold

B4: TRIM50, Q86XT4 (peptide)
chain: PLSPEQPTKL
- pKd [1, 32]: below the threshold
- pKd [2, 32]: below the threshold
- pKd [3, 32]: below the threshold
- pKd [4, 32]: 3.93
- pKd [5, 32]: below the threshold
- pKd [6, 32]: below the threshold
- pKd [7, 32]: below the threshold
- pKd [8, 32]: below the threshold
- pKd [9, 32]: below the threshold
- pKd [10, 32]: below the threshold
- pKd [11, 32]: below the threshold
- pKd [12, 32]: below the threshold
- pKd [13, 32]: below the threshold
- pKd [14, 32]: below the threshold
- pKd [15, 32]: below the threshold
- pKd [16, 32]: below the threshold
- pKd [17, 32]: below the threshold
- pKd [18, 32]: below the threshold
- pKd [19, 32]: below the threshold
- pKd [20, 32]: below the threshold
- pKd [21, 32]: below the threshold
- pKd [22, 32]: below the threshold
- pKd [23, 32]: 3.97
- pKd [24, 32]: below the threshold
- pKd [25, 32]: below the threshold
- pKd [26, 32]: below the threshold
- pKd [27, 32]: below the threshold
- pKd [28, 32]: below the threshold
- pKd [29, 32]: below the threshold

B5: NHERF2, Q15599 (peptide)
chain: NRKREIFSNF
- pKd [1, 30]: below the threshold
- pKd [2, 30]: below the threshold
- pKd [3, 30]: below the threshold
- pKd [4, 30]: below the threshold
- pKd [5, 30]: below the threshold
- pKd [6, 30]: below the threshold
- pKd [7, 30]: below the threshold
- pKd [8, 30]: below the threshold
- pKd [9, 30]: below the threshold
- pKd [10, 30]: below the threshold
- pKd [11, 30]: below the threshold
- pKd [12, 30]: below the threshold
- pKd [13, 30]: below the threshold
- pKd [14, 30]: below the threshold
- pKd [15, 30]: below the threshold
- pKd [16, 30]: below the threshold
- pKd [17, 30]: below the threshold
- pKd [18, 30]: below the threshold
- pKd [19, 30]: below the threshold
- pKd [20, 30]: below the threshold
- pKd [21, 30]: below the threshold
- pKd [22, 30]: below the threshold
- pKd [23, 30]: below the threshold
- pKd [24, 30]: below the threshold
- pKd [25, 30]: below the threshold
- pKd [26, 30]: below the threshold
- pKd [27, 30]: below the threshold
- pKd [28, 30]: below the threshold
- pKd [29, 30]: below the threshold
